These results are taken from article PMC4541418.

In this data set the test system is Fur (HpFur) (Helicobacter pylori (G27?)). The data set is described as follows: DNase I footprinting. The following applies: pOPI and pOPII; 150 uM dipyridyl, 1 mM DTT then 5 mM H2O2, versus no H2O2; 10 mM Tris-Cl pH 7.85, 50 mM NaCl, 10 mM KCl, 0.02% Igepal CA-630, 10% glycerol, 0.1 mM DTT (plus 1 or 5 mM DTT or 5 mM H2O2); 150 uM (NH4)2Fe(SO4)2 or ….

As for “Ppfr probe (apo-operators pOPI, pOPII, pOPIII; holo-operator pOPIV)”, the binding signal (fold higher Fur needed) was 5.
